The text below walks through data of patent US20190233540A1 (JUNSHI BIOSCIENCES, published 2019).

Where a chain is given by its changes, count along the chain named.

In test [1] the target is T1, human PCSK9 D347Y recombinant protein (human, UniProt Q8NBP7 31-692, biotin label (sites not given) in Examples 3 and 9). The test is described as follows: cell-based or functional assay.
The target of test [2] is T2, human PCSK9 recombinant protein (human PCSK9 extracellular region protein) (human, UniProt Q8NBP7 31-692, biotin label (biotin-xx-NHS, sites not stated) in the ELISA and flow cytometry assays).
T2 construct: extracellular domain; The tag from the vector pSec CAGA2 ECD is not described; PCSK9 is a secreted protein; also called hPCSK9; HPCSK9
T2 sequence (Q8NBP7 31-692 limits assumed): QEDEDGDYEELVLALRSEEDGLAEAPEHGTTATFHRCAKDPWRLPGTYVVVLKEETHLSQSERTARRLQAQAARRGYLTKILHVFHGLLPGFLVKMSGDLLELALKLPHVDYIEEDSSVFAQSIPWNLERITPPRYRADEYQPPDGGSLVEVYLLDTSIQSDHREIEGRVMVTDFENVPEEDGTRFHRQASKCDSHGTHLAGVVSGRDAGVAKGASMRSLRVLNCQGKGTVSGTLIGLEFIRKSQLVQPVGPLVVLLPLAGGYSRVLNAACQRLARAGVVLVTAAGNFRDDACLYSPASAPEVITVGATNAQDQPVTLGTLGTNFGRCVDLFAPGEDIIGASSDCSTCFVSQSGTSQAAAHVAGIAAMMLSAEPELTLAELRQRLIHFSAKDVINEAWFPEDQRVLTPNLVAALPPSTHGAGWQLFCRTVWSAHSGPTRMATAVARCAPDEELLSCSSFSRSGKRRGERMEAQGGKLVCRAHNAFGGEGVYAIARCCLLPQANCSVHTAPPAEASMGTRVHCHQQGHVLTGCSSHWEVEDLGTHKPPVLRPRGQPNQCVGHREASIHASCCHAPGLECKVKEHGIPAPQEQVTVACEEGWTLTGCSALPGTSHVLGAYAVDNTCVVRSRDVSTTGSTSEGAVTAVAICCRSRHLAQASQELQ
The test is described as follows: ForteBio instrument (BLI).

Test [3] deals with T1, human PCSK9 D347Y recombinant protein. The test is described as follows: ELISA, biotin-labeled PCSK9 (D347Y by the legend) at 2 ug/ml captured on streptavidin, antibody titrated; unit taken from the axis log(ng/ml).
Test [4] shares this target. The test is described as follows: ELISA, antibody coated at 1 ug/ml, biotin-labeled PCSK9 (D347Y by the legend) titrated, HRP-streptavidin; the concentration is that of PCSK9; unit taken from the axis log(pg/ml).
The target of test [5] is T2, human PCSK9 recombinant protein (human …). Briefly: ELISA, biotin-labeled PCSK9 at 0.2 ug/ml captured on streptavidin, antibody titrated; unit taken from the axis LOG (pg/mL).
The next test has as its target murine-derived PCSK9 (murine, UniProt Q80W65 35-694, limits assumed). The test is described as follows: ELISA, species cross-reactivity.
For test [6], the target named is T1, human PCSK9 D347Y recombinant protein. The test is described as follows: competition ELISA, biotin-labeled PCSK9 (D347Y by the legend) captured on streptavidin, antibody titrated in 200 ng/ml reference antibody, bound reference antibody detected with anti-human IgG-Fc; competitor: reference antibody; unit taken from the axis log(ng/ml); the curve is nearly flat (OD450 about 1.2 to 1.1), ambiguous fit.

The target is the same in test [7]. The test is described as follows: cell-based or functional assay. The source holds these as a separate data set.
The target in test [8] is T2, human PCSK9 recombinant protein (human …). Briefly: ELISA, biotin-labeled PCSK9 at 2 ug/ml captured on streptavidin, antibody titrated; unit taken from the axis log(pg/ml).
The target in test [9] is T1, human PCSK9 D347Y recombinant protein. The test is described as follows: competition ELISA, biotin-labeled PCSK9 (D347Y by the legend) captured on streptavidin, antibody titrated in 200 ng/ml reference antibody, bound reference antibody detected with anti-human IgG-Fc; competitor: reference antibody; unit taken from the axis log(ng/ml).

T1 sequence (Q8NBP7 31-692 D374Y): as the sequence (Q8NBP7 31-692 limits assumed) above, with D344Y counted along it
Chain of murine-derived PCSK9 (Q80W65 35-694 limits assumed): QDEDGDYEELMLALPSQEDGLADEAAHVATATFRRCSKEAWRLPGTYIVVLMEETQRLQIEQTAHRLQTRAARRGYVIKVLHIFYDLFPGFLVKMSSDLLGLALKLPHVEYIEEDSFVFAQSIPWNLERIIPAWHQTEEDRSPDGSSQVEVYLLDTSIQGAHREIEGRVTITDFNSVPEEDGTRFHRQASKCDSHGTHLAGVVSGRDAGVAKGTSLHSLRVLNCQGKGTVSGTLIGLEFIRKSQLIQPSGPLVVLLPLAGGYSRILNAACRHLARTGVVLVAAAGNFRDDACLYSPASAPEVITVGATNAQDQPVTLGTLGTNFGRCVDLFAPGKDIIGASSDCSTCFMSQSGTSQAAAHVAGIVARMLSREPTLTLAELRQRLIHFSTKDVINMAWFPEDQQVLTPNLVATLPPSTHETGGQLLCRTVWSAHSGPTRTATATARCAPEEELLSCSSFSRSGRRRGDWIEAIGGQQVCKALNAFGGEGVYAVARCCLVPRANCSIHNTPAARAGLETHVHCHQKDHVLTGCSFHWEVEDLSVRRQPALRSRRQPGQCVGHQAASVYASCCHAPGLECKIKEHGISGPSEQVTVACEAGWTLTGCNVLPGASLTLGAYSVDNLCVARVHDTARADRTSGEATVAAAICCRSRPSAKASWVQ

B1: 2B12 murine-derived anti-PCSK9 monoclonal antibody (antibody, V domains shown)
VH: DVQLQESGPGLVKPSQSLSLTCSVTGFSITSDYAWNWIRQFPGNKLEWMGYISYSGTTNYNPSLKSRISITRDTSKNQFFLHLNSVITEDTATYYCARREGHYSWFPYWGQGTLVTVSA
VL: DIVLTQSPASLAVSLGQRATISCRASESVEYYGTSLMHWYQHKPGQTPKLLIYSGSNVESGVPARFSGSGSGTDFSLNIHPVEEDDIAMYFCQQSREVPSTFGGGTKLEIK
notes: Mouse hybridoma antibody
B1: in test [1], the “IC50, LDL uptake of HepG2 cells” value is ~1 µg/mL. For the same molecule, the Kd in [2] was 0.49 nM. The figures for the EC50 in test [3] and in [4] were 0.023 µg/mL and 0.0389 µg/mL, respectively.

B2: humanized anti-PCSK9 antibody clone 32 (antibody, V domains shown)
VH: QVQLQESGPGLVKPSQTLSLTCTVSGFSISSYGIHWIRQSPGKGLEWIGVIWRGGITDYNAPFMSRVTISKDNSKNQVSFKLSSVTAADTAVYYCANHRDWGQGTLVTVSS
VL: DIQMTQSPSSLSASVGDRVTITCQASQDINKYIDWYQHKPGKAPKLLIHYASTLQPGVPSRFSGSGSGRDYTFTISSLQPEDIATYYCLQYDDLWTFGQGTKVEIK
notes: also called humanized antibody
In the case of B2, the “IC50, LDL uptake of HepG2 cells (Dil-LDL fluorescence)” value in test [1] is ~1 µg/mL. The EC50 in test [5] was determined as 0.00516 µg/mL.

B3: humanized anti-PCSK9 antibody clone 77 (antibody, V domains shown)
VH: B2 VH with I34V, I56S, P62A
VL: B2 VL
notes: It shares its light chain with clone 32; also called humanized antibody
For B3, the “IC50, LDL uptake of HepG2 cells (Dil-LDL fluorescence)” value in [1] is ~1 µg/mL. Moreover, the EC50 in test [5] came out at 0.00481 µg/mL.

B4: 1B11 murine-derived anti-PCSK9 monoclonal antibody (antibody, V domains shown)
VH: QVQLQQSGAVLVRPGTSIKVSCKASGYAFTNYLIEWIKKRPGQGLEWIGMINPGSGDTNFNEKFKAKATLTADKSSTTAYMQLNSLTFDDSAVYFCARSSQLGLPYWGQGTLVTVSA
VL: DIQMTQSPASLSASVGETVTITCRASENIYSYLAWYQQKQENSPQLLVYNAYTLADGVPSRFSGSGSGTQFSLKIISLQPEDFGNYYCQHHYRTPPTFGGGTKLEIK
notes: Mouse hybridoma antibody
In the case of B4, the “IC50, LDL uptake of HepG2 cells” value in test [1] is ~1 µg/mL. Also, the dissociation constant Kd in test [2] was found to be 4.7 nM. Moreover, in the test with murine-derived PCSK9, the binding result is reported as “no binding”. For the same molecule, the EC50 in test [4] was found to be 0.143 µg/mL. In [6], the IC50 was ~0.227 µg/mL.

B5: 3G12 murine-derived anti-PCSK9 monoclonal antibody (antibody, V domains shown)
VH: QVQLKQSGPSLLQPSQSLSITCTVSGFSLTSYGIHWVRQSPGKGLEWLGVIWRGGITDYNAPFMSRLNITKDNSKNQVFFKMNSLQVDDTAIYYCANHRDWGQGTLVTVSA
VL: DIQMTQSPSSLSASLGGKVTITCKASQDINKYIDWYQHKPGKSPRLLIHYASTLQPGIPSRFSGSGSGRDYSFSISNLEPEDIATYYCLQYDDLWTFGGGTKLEIK
notes: Mouse hybridoma antibody
As to B5, the “IC50, LDL uptake of HepG2 cells” value in [1] is ~1 µg/mL. For the same molecule, the “IC50(nM), LDL uptake of HepG2 cells (FL-LDL fluorescence)” value in [7] was determined as 5.5 nM. The dissociation constant Kd in test [2] came out at 0.28 nM. The figures for the 50% effective concentration (EC50) in test [8], in test [3] and in test [4] were 0.078 µg/mL, 0.223 µg/mL and 0.0835 µg/mL, respectively. Moreover, the IC50 in test [9] worked out at 0.0766 µg/mL.

B6: 3G12 chimeric antibody (antibody, V domains shown)
VH: B5 VH
VL: B5 VL
As to B6, the EC50 in [8] was determined as 0.0338 µg/mL.

B7: 1A5 murine-derived anti-PCSK9 monoclonal antibody (antibody, V domains shown)
VH: B5 VH with L12V, I34V, I56S, P62A, N68S, N76S, V87A
VL: B5 VL with G17D, S43G, A51T, L89V
notes: Mouse hybridoma antibody
For B7, in [1], the “IC50, LDL uptake of HepG2 cells” value is ~1 µg/mL. For the same molecule, the equilibrium dissociation constant (Kd) in test [2] is 0.91 nM. Also, the 50% effective concentration (EC50) in test [3] was found to be 0.251 µg/mL; in test [4], 0.752 µg/mL. In addition, the IC50 in test [9] is 0.808 µg/mL.

B8: 1B5 murine-derived anti-PCSK9 monoclonal antibody (antibody, V domains shown)
VH: DVQLQESGPGLVKPSQSLSLTCTVTGYSITSDYAWNWIRQFPGNKVEWMGYISYSGSSSYNPSLKGRISITRDTSKNQFFLQLNSVTTEDTATYYCARFYYRFDAYFDSWGQGTTLTVSS
VL: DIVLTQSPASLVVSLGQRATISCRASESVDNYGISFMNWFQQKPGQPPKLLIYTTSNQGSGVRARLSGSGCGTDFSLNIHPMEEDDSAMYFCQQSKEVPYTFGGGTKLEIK
notes: Mouse hybridoma antibody
Take B8: the “IC50, LDL uptake of HepG2 cells” value in test [1] was ~1 µg/mL. For the same molecule, the Kd in test [2] was 0.9 nM. Further, the results for the EC50 in [3] and in test [4] were 0.318 µg/mL and 0.666 µg/mL, respectively. Besides, the half-inhibitory concentration (IC50) in [9] was determined as 0.675 µg/mL.
